This assay deals with actin of the cytoskeleton of living U2OS cells (human (endogenous in U2OS)) (UniProt P60709). The experiment in a line: FRAP; fluorescence recovery after photobleaching at lamellipodia of living U2OS cells expressing mEGFP-DARPins or mCherry-LifeAct, 37 °C, single-exponential fit.

The values that follow come from publication PMC10976963.

mCherry-LifeAct (peptide) displayed an FRAP half-recovery time (τ1/2) at lamellipodia of 0.47 s.
